{"source": "patent US8343490B2", "about": "“Monoclonal antibody SC104 and derivative thereof specifically binding to a sialyltetraosyl carbohydrate as a potential anti-tumor therapeutic agent” (Cephalon Australia Pty Ltd, priority 2004, dated 2013)", "molecules": {"B1": {"name": "SC104: mouse IgG1 monoclonal antibody specific for a sialyltetraosyl carbohydrate, raised by immunisation with colorectal cancer cell lines (antibody, V domains shown)", "VH": "DVQLQESGPDLVKPSQSLSLTCTVTGYSITSGYSWHWVRQFPGNKMEWMGHIHFSGRPTYNPSLSSRISITRDTSKNQFLLQLKFVTTEDTSTYFCARKGKGSDDGLNYWGQGISVTVSS", "VL": "ENVLTQSPVIMSASPGEKVTMTCSASSSLSYIHWYQQKSRTSPKLWIYDTSNLASGVPGRFSGSGSGNSYSLTISSMEAEDVATYYCFQGSEYPLTFGGGTKLEMT"}}, "key": {"[1]": {"experiment": "Blood group antigen ELISA, H type I", "assay_type": "binding", "protocol": "The Lewis ^y hapten and the type I and type II H blood group antigen (Sigma, Poole, Dorset) were dried microtitre plates by overnight incubation at 37° C. Binding of SC104 mab was assayed by ELISA as described above."}, "[2]": {"biological_target": "T1, CEA (Homo sapiens, UniProt P06731)", "T1 construct": "from tissue", "T1 sequence (P06731 35-676)": "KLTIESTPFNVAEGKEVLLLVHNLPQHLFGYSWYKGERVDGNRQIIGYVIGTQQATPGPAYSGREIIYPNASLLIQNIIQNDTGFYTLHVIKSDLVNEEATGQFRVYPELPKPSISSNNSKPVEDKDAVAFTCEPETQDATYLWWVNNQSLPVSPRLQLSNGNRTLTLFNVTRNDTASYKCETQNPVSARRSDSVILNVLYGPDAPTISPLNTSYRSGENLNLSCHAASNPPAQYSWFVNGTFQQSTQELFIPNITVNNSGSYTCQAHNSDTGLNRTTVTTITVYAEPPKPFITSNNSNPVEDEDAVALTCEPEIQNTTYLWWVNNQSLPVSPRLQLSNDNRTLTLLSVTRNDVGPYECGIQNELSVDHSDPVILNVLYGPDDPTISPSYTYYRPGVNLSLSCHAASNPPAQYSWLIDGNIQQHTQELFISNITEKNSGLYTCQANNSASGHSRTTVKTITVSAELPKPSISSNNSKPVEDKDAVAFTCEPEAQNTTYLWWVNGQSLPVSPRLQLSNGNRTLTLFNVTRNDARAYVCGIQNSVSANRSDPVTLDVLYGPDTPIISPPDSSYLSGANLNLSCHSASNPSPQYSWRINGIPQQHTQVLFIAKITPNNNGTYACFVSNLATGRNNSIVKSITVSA", "experiment": "ELISA on purified CEA", "assay_type": "binding", "conditions": "FIG. 4", "protocol": "• Binding to purified antigen preparations. […] Binding of SC104 mab was assayed by ELISA as described above."}, "[3]": {"tested_on": "pan caspase in C170 cells", "experiment": "Pan caspase activation (FITC-FMK-vad, flow cytometry)", "assay_type": "cell-based", "conditions": "30 μg/ml, up to 6 hrs; FIG. 17", "protocol": "Pan caspase activation. 2×10^5 colorectal C170 cells were exposed to 30 μg/ml of SC104 for up to 6 hrs and pan caspase FITC-FMK-vad (caspACE FITC-vad-FMK, Promega, catalogue number G7462) employed to establish caspase activation. The cells were analysed by flow cytometry. Controls included a negative control murine antibody and a Fas antibody at 100 ng/ml."}}}
{"molecule": "B1", "values": [{"measurement": "Binding to blood group antigens by ELISA: H blood group Type I", "setting": "[1]", "value": 0.087, "unit": "OD 405 nm"}, {"measurement": "staining of CEA by ELISA", "setting": "[2]", "value": "No significant staining"}, {"measurement": "pan caspase activation", "setting": "[3]", "value": "activates pan caspases after 5 hrs"}]}
